Reference: patent US12099068B2, “Biomarkers for graft-versus-host disease” (Incyte Corporation, priority 2018, dated 2024)

System: plasma proteins
Test: Plasma proteins modulated between baseline and day 28 in responders (CR, VGPR, PR; n = 19), Example 6 (Table 13)
Format: in vivo, human
Details: plasma protein (OLINK NPX); responders (CR, VGPR, PR; n = 19); itacitinib 200 mg or 300 mg QD with corticosteroids; day 28 vs baseline
Method in brief: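 Plasma at baseline/screening and day 28 profiled for >1000 proteins by OLINK proximity extension assay, reported as NPX (log2). Steroid-naive and steroid-refractory patients pooled. Paired and unpaired t tests, ANOVA and Pearson correlation applied; significance at P<0.05.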

B1: Gal-4 (protein, UniProt P56470 1-323, looked up)
Galectin-4: MAYVPAPGYQPTYNPTLPYYQPIPGGLNVGMSVYIQGVASEHMKRFFVNFVVGQDPGSDVAFHFNPRFDGWDKVVFNTLQGGKWGSEERKRSMPFKKGAAFELVFIVLAEHYKVVVNGNPFYEYGHRLPLQMVTHLQVDGDLQLQSINFIGGQPLRPQGPPMMPPYPGPGHCHQQLNSLPTMEGPPTFNPPVPYFGRLQGGLTARRTIIIKGYVPPTGKSFAINFKVGSSGDIALHINPRMGNGTVVRNSLLNGSWGSEEKKITHNPFGPGQFFDLSIRCGLDRFKVYANGQHLFDFAHRLSAFQRVDTLEIQGDVTLSYVQI
- Fold Change, Increased Expression from Baseline to Day 28: 1.4274

B2: CLEC6A (protein, UniProt Q6EIG7 1-209, looked up)
C-type lectin domain family 6 …: MMQEQQPQSTEKRGWLSLRLWSVAGISIALLSACFIVSCVVTYHFTYGETGKRLSELHSYHSSLTCFSEGTKVPAWGCCPASWKSFGSSCYFISSEEKVWSKSEQNCVEMGAHLVVFNTEAEQNFIVQQLNESFSYFLGLSDPQGNNNWQWIDKTPYEKNVRFWHLGEPNHSAEQCASIVFWKPTGWGWNDVICETRRNSICEMNKIYL
- Fold Change, Decreased Expression from Baseline to Day 28: −1.3248

B3: LAMP3 (protein, UniProt Q9UQV4 28-416, looked up)
Lysosome-associated membrane …: KAFPETRDYSQPTAAATVQDIKKPVQQPAKQAPHQTLAARFMDGHITFQTAATVKIPTTTPATTKNTATTSPITYTLVTTQATPNNSHTAPPVTEVTVGPSLAPYSLPPTITPPAHTTGTSSSTVSHTTGNTTQPSNQTTLPATLSIALHKSTTGQKPVQPTHAPGTTAAAHNTTRTAAPASTVPGPTLAPQPSSVKTGIYQVLNGSRLCIKAEMGIQLIVQDKESVFSPRRYFNIDPNATQASGNCGTRKSNLLLNFQGGFVNLTFTKDEESYYISEVGAYLTVSDPETIYQGIKHAVVMFQTAVGHSFKCVSEQSLQLSAHLQVKTTDVQLQAFDFEDDHFGNVDECSSDYTIVLPVIGAIVVGLCLMGMGVYKIRLRCQSSGYQRI
- Fold Change, Decreased Expression from Baseline to Day 28: −1.7705

B4: TDRKH (protein, UniProt Q9Y2W6 1-561, looked up)
Tudor and KH …: MSTERTSWTSLSTIQKIALGLGIPASATVAYILYRRYRESREERLTFVGEDDIEIEMRVPQEAVKLIIGRQGANIKQLRKQTGARIDVDTEDVGDERVLLISGFPVQVCKAKAAIHQILTENTPVSEQLSVPQRSVGRIIGRGGETIRSICKASGAKITCDKESEGTLLLSRLIKISGTQKEVAAAKHLILEKVSEDEELRKRIAHSAETRVPRKQPISVRREDMTEPGGAGEPALWKNTSSSMEPTAPLVTPPPKGGGDMAVVVSKEGSWEKPSDDSFQKSEAQAIPEMPMFEIPSPDFSFHADEYLEVYVSASEHPNHFWIQIVGSRSLQLDKLVNEMTQHYENSVPEDLTVHVGDIVAAPLPTNGSWYRARVLGTLENGNLDLYFVDFGDNGDCPLKDLRALRSDFLSLPFQAIECSLARIAPSGDQWEEEALDEFDRLTHCADWKPLVAKISSYVQTGISTWPKIYLYDTSNGKKLDIGLELVHKGYAIELPEDIEENRAVPDMLKDMATETDASLSTLLTETKKSSGEITHTLSCLSLSEAASMSGDDNLEDDYLL
- Fold Change, Decreased Expression from Baseline to Day 28: −1.2785

B5: FABP4 (protein, UniProt P15090 2-132, looked up)
Fatty acid-binding protein, …: CDAFVGTWKLVSSENFDDYMKEVGVGFATRKVAGMAKPNMIISVNGDVITIKSESTFKNTEISFILGQEFDEVTADDRKVKSTITLDGGVLVHVQKWDGKSTTIKRKREDDKLVVECVMKGVTSTRVYERA
- Fold Change, Increased Expression from Baseline to Day 28: 1.6926

B6: IGFBP-2 (protein, UniProt P18065 36-325, looked up)
Insulin-like growth …: AEVLFRCPPCTPERLAACGPPPVAPPAAVAAVAGGARMPCAELVREPGCGCCSVCARLEGEACGVYTPRCGQGLRCYPHPGSELPLQALVMGEGTCEKRRDAEYGASPEQVADNGDDHSEGGLVENHVDSTMNMLGGGGSAGRKPLKSGMKELAVFREKVTEQHRQMGKGGKHHLGLEEPKKLRPPPARTPCQQELDQVLERISTMRLPDERGPLEHLYSLHIPNCDKHGLYNLKQCKMSLNGQRGECWCVNPNTGKLIQGAPTIRGDPECHLFYNEQQEARGVHTQRMQ
- Fold Change, Decreased Expression from Baseline to Day 28: −1.2058

B7: GM-CSF-R-alpha (protein, UniProt P15509 23-400, looked up)
Granulocyte-macrophage …: EKSDLRTVAPASSLNVRFDSRTMNLSWDCQENTTFSKCFLTDKKNRVVEPRLSNNECSCTFREICLHEGVTFEVHVNTSQRGFQQKLLYPNSGREGTAAQNFSCFIYNADLMNCTWARGPTAPRDVQYFLYIRNSKRRREIRCPYYIQDSGTHVGCHLDNLSGLTSRNYFLVNGTSREIGIQFFDSLLDTKKIERFNPPSNVTVRCNTTHCLVRWKQPRTYQKLSYLDFQYQLDVHRKNTQPGTENLLINVSGDLENRYNFPSSEPRAKHSVKIRAADVRILNWSSWSEAIEFGSDDGNLGSVYIYVLLIVGTLVCGIVLGFLFKRFLRIQRLFPPVPQIKDKLNDNHEVEDEIIWEEFTPEEGKGYREEVLTVKEIT
- Fold Change, Decreased Expression from Baseline to Day 28: −1.4489

B8: CD40-L (protein, UniProt P29965 113-261, looked up)
CD40 ligand, soluble form: MQKGDQNPQIAAHVISEASSKTTSVLQWAEKGYYTMSNNLVTLENGKQLTVKRQGLYYIYAQVTFCSNREASSQAPFIASLCLKSPGRFERILLRAANTHSSAKPCGQQSIHLGGVFELQPGASVFVNVTDPSQVSHGTGFTSFGLLKL
- Fold Change, Decreased Expression from Baseline to Day 28: −1.5868

B9: GSAP (protein, UniProt A4D1B5 1-854, looked up)
Gamma-secretase-activating …: MALRLVADFDLGKDVLPWLRAQRAVSEASGAGSGGADVLENDYESLHVLNVERNGNIIYTYKDDKGNVVFGLYDCQTRQNELLYTFEKDLQVFSCSVNSERTLLAASLVQSTKEGKRNELQPGSKCLTLLVEIHPVNNVKVLKAVDSYIWVQFLYPHIESHPLPENHLLLISEEKYIEQFRIHVAQEDGNRVVIKNSGHLPRDRIAEDFVWAQWDMSEQRLYYIDLKKSRSILKCIQFYADESYNLMFEVPLDISLSNSGFKLVNFGCDYHQYRDKFSKHLTLCVFTNHTGSLCVCYSPKCASWGQITYSVFYIHKGHSKTFTTSLENVGSHMTKGITFLNLDYYVAVYLPGHFFHLLNVQHPDLICHNLFLTGNNEMIDMLPHCPLQSLSGSLVLDCCSGKLYRALLSQSSLLQLLQNTCLDCEKMAALHCALYCGQGAQFLEAQIIQWISENVSACHSFDLIQEFIIASSYWSVYSETSNMDKLLPHSSVLTWNTEIPGITLVTEDIALPLMKVLSFKGYWEKLNSNLEYVKYAKPHFHYNNSVVRREWHNLISEEKTGKRRSAAYVRNILDNAVKVISNLEARNLGPRLTPLLQEEDSHQRLLMGLMVSELKDHFLRHLQGVEKKKIEQMVLDYISKLLDLICHIVETNWRKHNLHSWVLHFNSRGSAAEFAVFHIMTRILEATNSLFLPLPPGFHTLHTILGVQCLPLHNLLHCIDSGVLLLTETAVIRLMKDLDNTEKNEKLKFSIIVRLPPLIGQKICRLWDHPMSSNIISRNHVTRLLQNYKKQPRNSMINKSSFSVEFLPLNYFIEILTDIESSNQALYPFEGHDNVDAEFVEEAALKHTAMLLGL
- Fold Change, Decreased Expression from Baseline to Day 28: −1.4153

B10: PILRB (protein, UniProt Q9UKJ0 20-227, looked up)
Paired immunoglobulin-like …: QPGGSTGSGPSYLYGVTQPKHLSASMGGSVEIPFSFYYPWELAIVPNVRISWRRGHFHGQSFYSTRPPSIHKDYVNRLFLNWTEGQESGFLRISNLRKEDQSVYFCRVELDTRRSGRQQLQSIKGTKLTITQAVTTTTTWRPSSTTTIAGLRVTESKGHSESWHLSLDTAIRVALAVAVLKTVILGLLCLLLLWWRRRKGSRAPSSDF
- Fold Change, Decreased Expression from Baseline to Day 28: −1.3019

B11: CDIC (protein, UniProt P29017 18-333, looked up)
T-cell surface glycoprotein …: NADASQEHVSFHVIQIFSFVNQSWARGQGSGWLDELQTHGWDSESGTIIFLHNWSKGNFSNEELSDLELLFRFYLFGLTREIQDHASQDYSKYPFEVQVKAGCELHSGKSPEGFFQVAFNGLDLLSFQNTTWVPSPGCGSLAQSVCHLLNHQYEGVTETVYNLIRSTCPRFLLGLLDAGKMYVHRQVRPEAWLSSRPSLGSGQLLLVCHASGFYPKPVWVTWMRNEQEQLGTKHGDILPNADGTWYLQVILEVASEEPAGLSCRVRHSSLGGQDIILYWGHHFSMNWIALVVIVPLVILIVLVLWFKKHCSYQDIL
- Fold Change, Decreased Expression from Baseline to Day 28: −1.5651
